In US20210180049A1 (CHUGAI SEIYAKU KABUSHIKI KAISHA, priority 2013, published 2021):

What was measured:
[1] = phage ELISA for binding to 5′-adenosine-PEG-biotin
Method: (§1) Next, for the purpose of confirming to which antigen of 2′-adenosine-PEG-biotin, 5′-adenosine-PEG-biotin, and ATP-PEG-biotin these clones have binding ability, the purified phages diluted with TBS were subjected to ELISA by the following procedure. A StreptaWell 96 microtiter plate (Roche) was coated at room temperature for one hour with 100 μl of TBS containing a biotin-labeled antigen (2′-adenosine-PEG-biotin, 5′-adenosine-PEG-biotin, or ATP-PEG-biotin). After the antigens were removed by washing each well of the plate with TBST, the wells were blocked with 250 μl of 2% skim milk/TBS for one hour or more. 2% skim milk/TBS was removed, and then the prepared, purified phages were added to each well. The plate was allowed to stand at room temperature for one hour to allow binding of antibody-displaying phages to antigens in each well. After TBST wash, a HRP-conjugated anti-M13 antibody (Amersham Pharmacia Biotech) diluted with TBS was added to each well. The plate was incubated for one hour. Following TBST wash, the TMB single solution (ZYMED) was added to each well. The chromogenic reaction in the solution of each well was terminated by adding sulfuric acid. Then, the developed color was assessed by measuring absorbance at 450 nm.

[2] = phage ELISA for binding to ATP-PEG-biotin
Method: as §1

[3] = competitive phage ELISA with ATP; format: binding; conditions: ATP from equal amount up to 10000 times that of the antigen
Method: ATNLSA1-4_D12 and PF1 were each diluted with TBS and subjected to ELISA by the following procedure.
A StreptaWell 96 microtiter plate (Roche) was coated at room temperature for one hour with 100 μl of TBS containing biotin-labeled antigens (a mixture of 5′-adenosine-PEG-biotin and ATP-PEG-biotin). After the antigens were removed by washing each well of the plate with TBST, the wells were blocked with 250 μl of 2% skim milk/TBS for one hour or more. 2% skim milk/TBS was removed, and then the prepared, purified phages were added to each well. The plate was allowed to stand at room temperature for one hour to allow binding of the antibody-displaying phages to the antigens in each well. […] For the competition of the immobilized antigen with ATP, the plate was allowed to stand at room temperature for one hour. Then, after TBST wash, an HRP-conjugated anti-M13 antibody (Amersham Pharmacia Biotech) diluted with TBS was added to each well. The plate was incubated for one hour. Following TBST wash, the TMB single solution (ZYMED) was added to each well. The chromogenic reaction in the solution of each well was terminated by adding sulfuric acid. Then, the developed color was assessed by measuring absorbance at 450 nm.

[4] = SPR (Biacore T200) binding of D12 and ATNLSA1-4_D12 variants to ATP; conditions: Biacore T200, 15° C., 500 mM NaCl
Method: (§2) Sensor chip CM5 or CM4 (GE Healthcare) was immobilized with an appropriate amount of protein A (Life technologies) by amine coupling. The antibody of interest was captured by the chip to allow interaction with ATP (Wako), adenosine (Wako), or ADP (adenosine diphosphate) (Wako) as an antigen. The running buffer used was 50 mM Tris-HCl (Takara, T903), 500 mM NaCl, 0.01% (w/v) Tween20. The antigen was allowed to interact for 30 seconds at a flow rate of 30 μl/min, and was dissociated for 30 seconds. The interaction with the antigen was assessed at 15° C. The antigen was diluted using the same running buffer.
(§3) The dissociation constant KD (M) was calculated based on the association rate constant ka (1/Ms) and dissociation rate constant kd (l/s), both of which are kinetic parameters calculated from the sensorgram obtained by the measurement. Alternatively, the dissociation constant KD (M) was calculated using steady state analysis. Each parameter was calculated using the Biacore T200 Evaluation Software (GE Healthcare).
Based on the assay result, the affinity of each variant for ATP was calculated as a KD value. […]
It was determined that amino acids substituted at the sites could be included in a library (flexible residues to be introduced into a library).

[5] = SPR (Biacore T200) binding of D12 to ADP; conditions: Biacore T200, 15° C., 500 mM NaCl
Method: as §2, §3

[6] = SPR (Biacore T200) binding of D12 and variants to adenosine; conditions: Biacore T200, 15° C., corrected with 20 μmo1/1 ADP, Formula 2
Method: as §2, §3
To calculate the KD for adenosine, the binding response was assessed at various concentrations of adenosine in the presence or absence of 20 μmo1/1 ADP. In addition, the binding response was separately assessed in the presence of 20 μmo1/1 ADP. […]

[7] = SPR (Biacore T200) binding of SMB0002 to adenosine; conditions: Biacore T200, 25° C., antibody captured on protein A; read-out: KD of SMB0002 toward adenosine
Method: Using Biacore T200 (GE Healthcare), the antibody SMB0002 obtained by the B cell cloning method was analyzed for its interaction with adenosine in antigen-antibody reaction. Sensor chip CM5 (GE Healthcare) was immobilized with an appropriate amount of protein A (Invitrogen) by amine coupling. Antibodies of interest were captured by the chip to allow interaction to adenosine as an antigen. The running buffer used was 50 mmol/1 TrisHCl, 150 mmol/1 NaCl, 0.02% (w/v) Tween20, pH 7.6. All measurements were carried out at 25° C. The antigens were diluted using the running buffer.
Then, running buffer was run at a flow rate of 30 μL/min for four minutes and dissociation of the antigen from the antibody was observed. Next, 10 mmol/L glycine-HCl, pH 1.5, was loaded at a flow rate of 30 μL/min for 30 seconds to regenerate the sensor chip. Kinetic parameters such as the association rate constant ka (1/Ms) and the dissociation rate constant kd (l/s) were calculated based on the sensorgrams obtained by the measurements. The dissociation constant KD (M) was calculated from these constants. Each parameter was calculated using the Biacore T200 Evaluation Software (GE Healthcare).

[8] = SPR (Biacore T200) binding of SMB0002 to ATP; conditions: Biacore T200, 25° C., antibody captured on protein A/G; read-out: KD of SMB0002 toward ATP
Method: Biacore T200 (GE Healthcare) was used to analyze interaction in the antigen-antibody reaction with ATP. The antibody of interest was captured onto protein A/G (Invitrogen) immobilized in an appropriate amount onto Sensor chip CM5 (GE Healthcare) by the amine coupling method, and ATP which is the antigen was allowed to interact. The running buffer used was 10 mmol/L ACES, 150 mmol/L NaCl, 0.05% (w/v) Tween 20, pH 7.4. All measurements were carried out at 25° C. The antigen was diluted with running buffer.
Then, running buffer was run at a flow rate of 20 μL/min for three minutes and dissociation of the antigen from the antibody was observed. Next, 10 mmol/L glycine-HCl, pH 1.5, was injected at a flow rate of 30 μL/min for 30 seconds to regenerate the sensor chip. Kinetic parameters such as the association rate constant ka (1/Ms) and the dissociation rate constant kd (l/s) were calculated based on the sensorgrams obtained by the measurements. The dissociation constant KD (M) was calculated from these constants. Each parameter was calculated using the Biacore T200 Evaluation Software (GE Healthcare).

[9] = competitive ELISA of 2′-Adenosine-PEG-Biotin-binding clones with adenosine and ATP; conditions: 50 nM 2′-Adenosine-PEG-Biotin with 500 μM adenosine or ATP; absorbance at 405 nm
Method: To immobilize the antibodies, the plate was allowed to stand for one hour or more at room temperature. After the antibodies diluted with PBS were removed from each well, TBS containing 1% BSA was added thereto and the plate was allowed to stand for one hour or more. Then, the TBS (pH 7.4) containing 1% BSA was removed from the plate. 2′-Adenosine-PEG-Biotin diluted to 50 nM with PBS, a mixture of 2′-Adenosine-PEG-Biotin and adenosine diluted to 50 nM and 500 μM respectively with PBS, a mixture of 2′-Adenosine-PEG-Biotin and ATP diluted to 50 nM and 500 μM respectively with PBS, or PBS alone was added to the plate. The plate was allowed to stand at room temperature for one hour, and then washed three times with 80 μl of PBS containing 0.05% Tween-20. Then, Streptavidin-HRP (Thermo fisher scientific) diluted 20000 times with PBS was added to each well, and the plate was allowed to stand for one hour or more at room temperature. After the plate was washed three times with 80 μl of PBS containing 0.05% Tween-20, a chromogenic substrate (ABTS peroxidase substrate) was added to each well. After the plate was incubated for one hour, color development in the solution of each well was assessed by measuring absorbance at 405 nm using SpectraMax from Molecular Device.

[10] = SPR binding of SMB0002 to AMP; conditions: Biacore; read-out: KD of SMB0002 toward AMP
Method: Binding of SMB0002 was assessed at AMP concentrations of 500, 250 (duplicate), 125, 62.5, 31.25, 15.625, and 7.8125 μM.

[11] = SPR binding of SMB0002 to ADP; conditions: Biacore, NaCl concentration 600 mM; read-out: KD of SMB0002 toward ADP
Method: Binding to ADP was assessed by a method similar to the measurement method using Biacore described in Example 3-2, except that the NaCl concentration was changed to 600 mM. Binding of SMB0002 was assessed at ADP concentrations of 2000, 1000 (duplicate), 500, 250, 250, 125, 62.5, and 31.3 μM.

Method for Tm measurement by DSC: Measurement by DSC was carried out by a method known to those skilled in the art.
DSC measurement was carried out by a method known to those skilled in the art.

Molecule	binding to 5′-Adenosine-PEG-biotin [1]	binding to ATP-PEG-biotin [2]	binding to biotin-labeled antigen with ATP as competitor [3]	Kd [4] [µM]	Kd [5] [µM]	Kd [6] [µM]	Tm (Tm measurement by DSC) [°C]	Kd [7] [µM]	Kd [8] [µM]	binding to 2′-Adenosine-PEG-Biotin on adding excess amounts of adenosine and ATP [9]	Kd [10] [µM]	Kd [11] [µM]
ATNLSA1-4_D12: ATP/adenosine-binding antibody; heavy-chain variable region SEQ ID NO: 48, light-chain variable region SEQ ID NO: 49 (antibody, listed as Homo sapiens, V domains shown) VH: QVQLQESGGDLVKPGGFLRLSCAASGFTFNTYTMNWVRQAPGKGLEWLSSISSRSNYINYADSVKGRFTISRDNAKNSLYLQMNSLRAEDTAVYYCARFGRKGDLNWVFDYWGQGTLVTVSS VL: QSALTQPPSASGSPGQTVTISCTGTSSDVGGYNYVSWYQQHPGKAPKLMIYEVSKRPSGVPDRFSGSKSGNTASLTVSGLQAEDEADYFCSSYAGSNNVVFGGGTKLTVL	ability to bind	ability to bind	inhibited in an ATP concentration-dependent manner	8.5	0.25	1100	74.37	–	–	–	–	–
SMB0002: rabbit B cell cloning antibody binding adenosine and ATP; heavy chain SEQ ID NO: 30, light chain SEQ ID NO: 31 (antibody, listed as Oryctolagus cuniculus) heavy: CQSVEESGGRLVTPGTPLTLTCTVSGIDLSNYAMGWVRQAPGKGLEWIGIIGADSSTWYPSWVKGRFTISKTSTTVDLKMTSLTTEDTATYFCARGRFVGYTNAFDPWGPGTLVTVSS light: AQVLTQTPSSVSAAVGGTVTISCQSSQSVWNNNYLSWYQQKPGQPPKLLIFDASTLASGVPSRFSGRGSGTQFTLTISGVQCEDAATYYCHGSYANSGWYDNAFGGGTEVVVK	–	–	–	–	–	–	–	0.015	10	inhibited	59	240
